B1: Asp f3 wild type, recombinant, C-terminally His-tagged (enzyme)
chain: MGSGLKAGDSFPSDVVFSYIPWSEDKGEITACGIPINYNASKEWADKKVILFALPGAFTPVCSARHVPEYIEKLPEIRAKGVDVVAVLAYNDAYVMSAWGKANQVTGDDILFLSDPDARFSKSIGWADEEGRTKRYALVIDHGKITYAALEPAKNHLEFSSAETVLKHL
notes: also called Aspf3 WT; WT Asp f3; source: E. coli ClearColi BL21(DE3), purified (Ni-NTA, size-exclusion on Superdex 75); not shown: His6, C-terminal, kept
B2: Asp f3 C31S/C61S variant, recombinant, C-terminally His-tagged (enzyme)
chain: MGSGLKAGDSFPSDVVFSYIPWSEDKGEITASGIPINYNASKEWADKKVILFALPGAFTPVSSARHVPEYIEKLPEIRAKGVDVVAVLAYNDAYVMSAWGKANQVTGDDILFLSDPDARFSKSIGWADEEGRTKRYALVIDHGKITYAALEPAKNHLEFSSAETVLKHL
notes: also called serine variant; mimic of the reduced Asp f3; source: E. coli ClearColi BL21(DE3), purified (Ni-NTA, size-exclusion on Superdex 75); not shown: His6, C-terminal, kept

Target: the molecule itself
Assay: AUC; sedimentation equilibrium, PBS pH 7.4, ~5, ~15 and ~25 uM protein, 10000, 20000 and 30000 rpm, 25 °C; global fit with Sedfit and Sedphat

Protein | stoichiometry N
B1 | 2
B2 | 2

— PMC5022050, “The Crystal Structure of Peroxiredoxin Asp f3 Provides Mechanistic Insight into Oxidative Stress Resistance and Virulence of Aspergillus fumigatus” (Scientific Reports, 2016)
